Test [1] addresses T1, hCD40L expressed on hCD40L-HEK-293 cells (Crown Biosciences, C2041) (human, UniProt P29965 1-261).
T1 construct: whole, on cells; also called huCD40L HEK293
T1 sequence (looked up): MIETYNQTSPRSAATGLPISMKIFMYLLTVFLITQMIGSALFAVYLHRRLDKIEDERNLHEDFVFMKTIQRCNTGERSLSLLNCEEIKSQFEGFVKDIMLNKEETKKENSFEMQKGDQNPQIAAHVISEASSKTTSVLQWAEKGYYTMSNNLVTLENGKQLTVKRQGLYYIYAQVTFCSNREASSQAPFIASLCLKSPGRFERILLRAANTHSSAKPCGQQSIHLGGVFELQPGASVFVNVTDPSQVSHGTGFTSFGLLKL
Nature of the test: flow cytometry on hCD40L-HEK293 cells, doses 0.7 to 500 nM. A general note: Flow cytometry measures light scatter and fluorescence of single cells or particles in a stream.

The target of test [2] is T2, human CD40L (hCD40L antigen) (human, UniProt P29965 113-261, limits assumed).
T2 sequence (looked up): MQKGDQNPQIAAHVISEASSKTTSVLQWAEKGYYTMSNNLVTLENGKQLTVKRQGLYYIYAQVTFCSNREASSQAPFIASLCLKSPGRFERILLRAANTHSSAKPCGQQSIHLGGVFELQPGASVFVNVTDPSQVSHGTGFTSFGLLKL
Nature of the test: cell-based or functional assay.

Another test deals with T3, human serum albumin (human, UniProt P02768 25-609).
T3 construct: also called HSA
T3 sequence (P02768 25-609): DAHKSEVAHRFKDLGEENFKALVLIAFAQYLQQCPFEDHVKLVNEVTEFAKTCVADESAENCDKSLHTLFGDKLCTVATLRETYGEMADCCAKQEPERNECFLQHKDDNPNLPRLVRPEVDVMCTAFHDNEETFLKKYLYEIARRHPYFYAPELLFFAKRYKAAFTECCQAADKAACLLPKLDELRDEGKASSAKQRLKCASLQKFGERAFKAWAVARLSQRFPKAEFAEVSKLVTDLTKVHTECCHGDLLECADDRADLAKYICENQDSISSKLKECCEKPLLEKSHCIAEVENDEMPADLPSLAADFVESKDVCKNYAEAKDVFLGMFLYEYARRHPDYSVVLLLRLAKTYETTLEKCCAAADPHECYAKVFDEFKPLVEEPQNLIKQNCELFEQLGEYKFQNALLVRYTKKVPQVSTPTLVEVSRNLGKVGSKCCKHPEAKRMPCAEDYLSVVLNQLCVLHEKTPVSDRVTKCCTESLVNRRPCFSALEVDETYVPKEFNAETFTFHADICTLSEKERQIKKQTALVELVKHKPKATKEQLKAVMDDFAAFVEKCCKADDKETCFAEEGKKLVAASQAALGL
As to the kind of experiment: bridging ELISA: capture on coated hCD40L, 10 uM HSA, anti-HSA detection.

B1: clone 230 (designed binder)
chain: MIPGGLSEAKPATPEIQEIVDKVKPQLEEKTGETYGKLEAVQYKTQVVHYYVHYNDQGTNYYIKVRAGDNKYMHLKVFKSLWGENLFAKWEDLVLTGYQVDKNKDDELTGF
Regarding B1, the binding result in test [1] is “binds”.

B2: clone 230 DJ (designed binder)
chain: IPGGLSEAKPATPEIQEIVDKVKPQLEEKTGETYGKLEAVQYKTQVVHYYVHYNDQGTNYYIKVRAGDNKYMHLKVFKSLWGENLFAKWEDLVLTGYQVDKNKDDELTGFGGGGSGGGGSGGGGSGGGGSGGGGSGGGGSMIPGGLSEAKPATPEIQEIVDKVKPQLEEKTGETYGKLEAVQYKTQVVHYYVHYNDQGTNYYIKVRAGDNKYMHLKVFKSLWGENLFAKWEDLVLTGYQVDKNKDDELTGFGGGGSGGGGSGGGGSGGGGSGGGGSGGGGSMIPGGLSEAKPATPEIQEIVDKVKPQLEEKTGETYGKLEAVQYKTQVVHYYVHYNDQGTNYYIKVRAGDNKYMHLKVFKSLWGENLFAKWEDLVLTGYQVDKNKDDELTGF
On to B2, for which the “EC50, HEK-Blue cell-based assay” value in test [2] turned out to be 5.99 nM.

B3: clone-230 XT76 (designed binder)
chain: IPGGLSEAKPATPEIQEIVDKVKPQLEEKTGETYGKLEAVQYKTQVVHYYVHYNDQGTNYYIKVRAGDNKYMHLKVFKSLWGENLFAKWEDLVLTGYQVDKNKDDELTGFAEAAAKEAAAKEAAAKEAAAKEAAAKEAAAKMIPGGLSEAKPATPEIQEIVDKVKPQLEEKTGETYGKLEAVQYKTQVVHYYVHYNDQGTNYYIKVRAGDNKYMHLKVFKSLWGENLFAKWEDLVLTGYQVDKNKDDELTGFAEAAAKEAAAKEAAAKEAAAKEAAAKEAAAKMIPGGLSEAKPATPEIQEIVDKVKPQLEEKTGETYGKLEAVQYKTQVVHYYVHYNDQGTNYYIKVRAGDNKYMHLKVFKSLWGENLFAKWEDLVLTGYQVDKNKDDELTGFAEAAAKEAAAKEAAAKEAAAKEAAAKEAAAKMIPGGLSEAKPATPEIQEIVDKVKPQLEEKTGETYGKLEAVQYKTQVVHYYVHYNDQGTNYYIKVRAGDNKYMHLKVFKSLWGENLFAKWEDLVLTGYQVDKNKDDELTGFAEAAAKEAAAKEAAAKEAAAKEAAAKEAAAKMIPRGLSEAKPATPEIQEIVDKVKPQLEEKTGETYGKLEAVQYKTQVLANFFQRRWPGSTNYYIKVRAGDNKYMHLKVFNGPWKFRNTDRGADRVLTGYQVDKNKDDELTGF
In the case of B3, the binding result with human serum albumin is “binds”.

B4: clone-230 XT75 (designed binder)
chain: IPGGLSEAKPATPEIQEIVDKVKPQLEEKTGETYGKLEAVQYKTQVVHYYVHYNDQGTNYYIKVRAGDNKYMHLKVFKSLWGENLFAKWEDLVLTGYQVDKNKDDELTGFAEAAAKEAAAKEAAAKEAAAKEAAAKEAAAKMIPGGLSEAKPATPEIQEIVDKVKPQLEEKTGETYGKLEAVQYKTQVVHYYVHYNDQGTNYYIKVRAGDNKYMHLKVFKSLWGENLFAKWEDLVLTGYQVDKNKDDELTGFAEAAAKEAAAKEAAAKEAAAKEAAAKEAAAKMIPGGLSEAKPATPEIQEIVDKVKPQLEEKTGETYGKLEAVQYKTQVVHYYVHYNDQGTNYYIKVRAGDNKYMHLKVFKSLWGENLFAKWEDLVLTGYQVDKNKDDELTGFAEAAAKEAAAKEAAAKEAAAKEAAAKEAAAKMIPRGLSEAKPATPEIQEIVDKVKPQLEEKTGETYGKLEAVQYKTQVLANFFQRRWPGSTNYYIKVRAGDNKYMHLKVFNGPWKFRNTDRGADRVLTGYQVDKNKDDELTGF
For B4, in the test with human serum albumin, the binding result was “binds”.

These data come from EP4477665A1 (AffyXell Therapeutics Co., Ltd., dated 2024).
